Experiment [1] addresses T1, IGF2BP3-001 A2 (alanine-substitution variant of IGF2BP3-001) peptide on HLA-A*02, assumed (human).
T1 peptide: KAQEILTQV
Description: cytokine release.

Experiment [2] has as its target T2, IGF2BP3-001 A8 (alanine-substitution variant of IGF2BP3-001) peptide on HLA-A*02, assumed (human).
T2 peptide: KIQEILTAV
Description: cytokine release.

Experiment [3] has as its target T3, IGF2BP3-001 A9 (alanine-substitution variant of IGF2BP3-001) peptide on HLA-A*02, assumed (human).
T3 peptide: KIQEILTQA
Description: cytokine release.

The target in experiment [4] is T4, IGF2BP3 (IGF2BP3-001) peptide on HLA-A2 (human).
T4 peptide: KIQEILTQV
Description: Target peptide titration on loaded target cells, IFN-gamma release; RNA-electroporated primary CD8+ T cells; full-length, on cells.

B1: TCR R10P1A7 (TCR, V domains shown)
Valpha: GEDVEQSLFLSVREGDSSVINCTYTDSSSTYLYWYKQEPGAGLQLLTYIFSNMDMKQDQRLTVLLNKKDKHLSLRIADTQTGDSAIYFCAESKETRLMFGDGTQLVVKP
Vbeta: GAVVSQHPSWVICKSGTSVKIECRSLDFQATTMFWYRQFPKQSLMLMATSNEGSKATYEQGVEKDKFLINHASLTLSTLTVTSAHPEDSSFYICSARAGGHEQFFGPGTRLTVL
Consider B1, for which the binding result in experiment [1], in experiment [2] and in experiment [3] was “recognises” in each case. Also, in experiment [4], the EC50 of peptide was roughly 1 nM.

For the origin of these results see patent US20170312350A1 (published 2017).
